Laboratory results: paper PMC6233222, “Structure and oligomerization of the periplasmic domain of GspL from the type II secretion system of Pseudomonas aeruginosa” (Scientific Reports, 2018)

Experiments:
[1] = molecular target: the molecule itself; experiment: SEC-SAXS; early elution peak of GspL^peri, 9.0 mg/ml injected; Bio SEC-3 column, SWING beamline
[2] = molecular target: the molecule itself; experiment: SEC-SAXS; late elution peak of GspL^peri, 13.7 mg/ml injected; Bio SEC-3 column, SWING beamline
[3] = molecular target: the molecule itself; experiment: SEC-MALLS; early elution peak (EEP) of GspL^peri, one hour after purification and after concentration; Superdex 200 increase in 50 mM TRIS pH 7.5, 100 mM NaCl; tetramer converts irreversibly into dimers
[4] = molecular target: the molecule itself; experiment: SEC-MALLS; GspL^fld made by incubation of GspL^peri in crystallization conditions over 48 hours and purified by SEC (absorbance at 220 nm)
[5] = molecular target: the molecule itself; experiment: crystal structure; crystal form 1, space group I4(1)22, 2.5 Å; dimer generated by a crystallographic 2-fold axis; sample from the LEP, sitting drop vapor diffusion at 20 °C

B1: GspL^peri, the complete periplasmic segment of general secretory pathway protein L (GspL) from Pseudomonas aeruginosa (domain or fragment)
chain: GDRYAAQSAELYRQLFPEDRKLINLRAQFDQHLADSASSGGEGQLLGLLGQAATVIGGEPTVSVEQLDFSAARGDVALQVRAPGFDVLERLRSRLSESGLAVQLGSASRDGSTVSARLVIGG
notes: membrane proximal domain (MPD), short linker and ferredoxin-like domain (FLD); calculated mass of the construct 13.95 kDa; No step that removes the tag is described; also called XcpY (periplasmic segment); EEP and LEP material; source: E. coli BL21 (DE3), purified (Strep-tactin, SEC on Superdex 75); not shown: Strep-tag, N-terminal, kept
In the case of B1, the “stoichiometry N” value [1] is reported as 4, the “stoichiometry N” value [2] is reported as 2 and the “tetramer to dimer ratio of peak areas, higher concentration” value [3] is reported as 0.57. The “tetramer to dimer ratio of peak areas, lower concentration” value [3] was 0.7.

B2: GspL^fld purified from GspL^peri that was incubated in crystallization conditions over 48 hours (domain or fragment)
chain: DSASSGGEGQLLGLLGQAATVIGGEPTVSVEQLDFSAARGDVALQVRAPGFDVLERLRSRLSESGLAVQLGSASRDGSTVSARLVIGG
notes: GspL (XcpY), P. aeruginosa PAO1; mixture of two proteolytic variants of the construct 261-382 that start at residues 286 and 295 (Edman degradation), the shorter one (from 295) predominant; the C-terminal limit 382 is that of the parent construct; The sample is a mixture of 295-382 (predominant) and 286-382; also called GspL^fld (in solution); 10 kDa band; source: E. coli BL21 (DE3), purified …
With B2 the “stoichiometry N” value [4] was 2.

B3: GspL^fld, the crystallized proteolytic product of GspL^peri (ferredoxin-like domain of GspL) (domain or fragment)
chain: RAQFDQHLADSASSGGEGQLLGLLGQAATVIGGEPTVSVEQLDFSAARGDVALQVRAPGFDVLERLRSRLSESGLAVQLGSASRDGSTVSARLVIGG
notes: GspL (XcpY), P. aeruginosa PAO1; proteolytic product of the construct 261-382 with the new N-terminus at residue 286 (Edman degradation); the C-terminal limit 382 is that of the parent construct; The protease is not identified; the N-terminal Strep-tag is lost with the N-terminal part of the MPD; also called Gsp^fld; crystal form 1; source: E. coli BL21 (DE3), purified GspL^peri (late elution …)
For B3, the “stoichiometry N” value [5] was 2.
